Reference: the supplement of paper PMC7125110
± gives the standard error. For some of these results: Variants at the floor of the assay were thinned out.

B1: glmS ribozyme (parent)
chain: AUAAAAGCGCCAGAACUACAGAAAUGUAGUUGACGAGGAGGAGGUUUAUCGAAUUUUCGGCGGAUGCCUCCAAA

Columns and labels:
Conditions in all cases: with glucosamine-6-phosphate
glucosamine-6-phosphate [1] = variants of: B1; assay: kcat; higher = faster cleavage; RNA array
Method in brief: (§1)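 E. coli RNA polymerase transcribed barcoded ribozyme variants in situ on sequenced MiSeq chips, which were tracked via a hybridised Cy3 probe at 37 °C. Tiles were imaged over ~14 h after glucosamine-6-phosphate (40 μM to 10 mM) in HEPES/KCl/Mg(OAc)2 buffer was flowed in. Normalised per-tile medians were fit to one- or two-exponential decays for kobs, and kcat and KM came from weighted Michaelis–Menten fits.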

glucosamine-6-phosphate [2] = variants of: B1; assay: KM; higher = weaker cofactor use; RNA array
Method in brief: as §1

glucosamine-6-phosphate [3] = variants of: B1; assay: self-cleavage kobs at 160 uM GlcN6P; higher = faster cleavage; RNA array
Method in brief: as §1

glucosamine-6-phosphate [4] = variants of: B1; assay: self-cleavage kobs at 640 uM GlcN6P; higher = faster cleavage; RNA array
Method in brief: as §1

glucosamine-6-phosphate [5] = variants of: B1; assay: self-cleavage kobs at 2500 uM GlcN6P; higher = faster cleavage; RNA array
Method in brief: as §1

glucosamine-6-phosphate [6] = variants of: B1; assay: self-cleavage kobs at 10000 uM GlcN6P; higher = faster cleavage; RNA array
Method in brief: as §1

glucosamine-6-phosphate [7] = variants of: B1; assay: self-cleavage kobs at 40 uM GlcN6P; higher = faster cleavage; RNA array
Method in brief: as §1

Variant: G29A U31C
- kcat (glucosamine-6-phosphate [1]): 0.000716 ± 0.00016 s⁻¹
- KM (glucosamine-6-phosphate [2]): 2070 ± 780 µM
- self-cleavage kobs at 160 uM GlcN6P (glucosamine-6-phosphate [3]): 7.58e-05 ± 2e-05 s⁻¹
- self-cleavage kobs at 640 uM GlcN6P (glucosamine-6-phosphate [4]): 0.000161 ± 3e-05 s⁻¹
- self-cleavage kobs at 2500 uM GlcN6P (glucosamine-6-phosphate [5]): 0.000333 ± 7.1e-05 s⁻¹
- self-cleavage kobs at 10000 uM GlcN6P (glucosamine-6-phosphate [6]): 0.000668 ± 0.00012 s⁻¹

Variant: G63C C71G
- kcat (glucosamine-6-phosphate [1]): < 1e-05 s⁻¹
- KM (glucosamine-6-phosphate [2]): 222 ± 79 µM
- self-cleavage kobs at 40 uM GlcN6P (glucosamine-6-phosphate [7]): < 1e-05 s⁻¹
- self-cleavage kobs at 160 uM GlcN6P (glucosamine-6-phosphate [3]): < 1e-05 s⁻¹
- self-cleavage kobs at 640 uM GlcN6P (glucosamine-6-phosphate [4]): < 1e-05 s⁻¹
- self-cleavage kobs at 10000 uM GlcN6P (glucosamine-6-phosphate [6]): < 1e-05 s⁻¹

Variant: G32A C61U
- kcat (glucosamine-6-phosphate [1]): < 1e-05 s⁻¹
- self-cleavage kobs at 160 uM GlcN6P (glucosamine-6-phosphate [3]): < 1e-05 s⁻¹
- self-cleavage kobs at 640 uM GlcN6P (glucosamine-6-phosphate [4]): < 1e-05 s⁻¹

Variant: unchanged
- kcat (glucosamine-6-phosphate [1]): 0.0712 ± 0.0079 s⁻¹
- KM (glucosamine-6-phosphate [2]): 1990 ± 250 µM
- self-cleavage kobs at 40 uM GlcN6P (glucosamine-6-phosphate [7]): 0.00143 ± 1.7e-05 s⁻¹
- self-cleavage kobs at 160 uM GlcN6P (glucosamine-6-phosphate [3]): 0.00462 ± 0.00025 s⁻¹
- self-cleavage kobs at 640 uM GlcN6P (glucosamine-6-phosphate [4]): 0.016 ± 0.00046 s⁻¹
- self-cleavage kobs at 2500 uM GlcN6P (glucosamine-6-phosphate [5]): 0.0364 ± 0.0015 s⁻¹
- self-cleavage kobs at 10000 uM GlcN6P (glucosamine-6-phosphate [6]): 0.0644 ± 0.0021 s⁻¹

Variant: A14C G66A
- kcat (glucosamine-6-phosphate [1]): 0.00362 ± 0.0004 s⁻¹
- KM (glucosamine-6-phosphate [2]): 1940 ± 370 µM
- self-cleavage kobs at 40 uM GlcN6P (glucosamine-6-phosphate [7]): 7.72e-05 ± 1.3e-05 s⁻¹
- self-cleavage kobs at 640 uM GlcN6P (glucosamine-6-phosphate [4]): 0.000879 ± 0.00024 s⁻¹
- self-cleavage kobs at 2500 uM GlcN6P (glucosamine-6-phosphate [5]): 0.00158 ± 0.00047 s⁻¹
- self-cleavage kobs at 10000 uM GlcN6P (glucosamine-6-phosphate [6]): 0.00316 ± 0.00037 s⁻¹

Variant: A6G U65G
- kcat (glucosamine-6-phosphate [1]): 0.000323 ± 2.1e-05 s⁻¹
- KM (glucosamine-6-phosphate [2]): 3580 ± 500 µM
- self-cleavage kobs at 640 uM GlcN6P (glucosamine-6-phosphate [4]): 4.35e-05 ± 1e-05 s⁻¹
- self-cleavage kobs at 2500 uM GlcN6P (glucosamine-6-phosphate [5]): 0.000141 ± 1.6e-05 s⁻¹
- self-cleavage kobs at 10000 uM GlcN6P (glucosamine-6-phosphate [6]): 0.000234 ± 2e-05 s⁻¹

Variant: C16G U69A
- kcat (glucosamine-6-phosphate [1]): 4.79e-05 ± 1e-05 s⁻¹
- self-cleavage kobs at 640 uM GlcN6P (glucosamine-6-phosphate [4]): 6.57e-05 ± 1.6e-05 s⁻¹
- self-cleavage kobs at 2500 uM GlcN6P (glucosamine-6-phosphate [5]): 5.05e-05 ± 1.2e-05 s⁻¹
- self-cleavage kobs at 10000 uM GlcN6P (glucosamine-6-phosphate [6]): 3.59e-05 ± 1.2e-05 s⁻¹

Variant: U31C C50G
- kcat (glucosamine-6-phosphate [1]): 6.62e-05 ± 2.8e-05 s⁻¹
- self-cleavage kobs at 40 uM GlcN6P (glucosamine-6-phosphate [7]): 2.9e-05 ± 1.3e-05 s⁻¹
- self-cleavage kobs at 160 uM GlcN6P (glucosamine-6-phosphate [3]): 0.000114 ± 1.7e-05 s⁻¹
- self-cleavage kobs at 640 uM GlcN6P (glucosamine-6-phosphate [4]): 0.000104 ± 2e-05 s⁻¹
- self-cleavage kobs at 2500 uM GlcN6P (glucosamine-6-phosphate [5]): 8.9e-05 ± 1.3e-05 s⁻¹

Variant: U31G A39C
- kcat (glucosamine-6-phosphate [1]): 0.00339 ± 0.0008 s⁻¹
- KM (glucosamine-6-phosphate [2]): 3130 ± 1100 µM
- self-cleavage kobs at 160 uM GlcN6P (glucosamine-6-phosphate [3]): 0.000147 ± 3.4e-05 s⁻¹
- self-cleavage kobs at 640 uM GlcN6P (glucosamine-6-phosphate [4]): 0.000584 ± 0.00012 s⁻¹
- self-cleavage kobs at 2500 uM GlcN6P (glucosamine-6-phosphate [5]): 0.00195 ± 0.00036 s⁻¹
- self-cleavage kobs at 10000 uM GlcN6P (glucosamine-6-phosphate [6]): 0.00236 ± 0.00045 s⁻¹

Variant: G13A G40U
- kcat (glucosamine-6-phosphate [1]): 8.11e-05 ± 1e-05 s⁻¹
- KM (glucosamine-6-phosphate [2]): 2810 ± 990 µM
- self-cleavage kobs at 40 uM GlcN6P (glucosamine-6-phosphate [7]): < 1e-05 s⁻¹
- self-cleavage kobs at 2500 uM GlcN6P (glucosamine-6-phosphate [5]): 4.21e-05 ± 8.5e-06 s⁻¹
- self-cleavage kobs at 10000 uM GlcN6P (glucosamine-6-phosphate [6]): 6.21e-05 ± 8.8e-06 s⁻¹

Variant: A15C U46G
- kcat (glucosamine-6-phosphate [1]): 0.00166 ± 0.00022 s⁻¹
- KM (glucosamine-6-phosphate [2]): 3240 ± 690 µM
- self-cleavage kobs at 160 uM GlcN6P (glucosamine-6-phosphate [3]): 8.08e-05 ± 2.2e-05 s⁻¹
- self-cleavage kobs at 640 uM GlcN6P (glucosamine-6-phosphate [4]): 0.000271 ± 4.6e-05 s⁻¹
- self-cleavage kobs at 2500 uM GlcN6P (glucosamine-6-phosphate [5]): 0.000681 ± 0.00011 s⁻¹
- self-cleavage kobs at 10000 uM GlcN6P (glucosamine-6-phosphate [6]): 0.00129 ± 0.00019 s⁻¹

Variant: G13A C68U
- kcat (glucosamine-6-phosphate [1]): 6.42e-05 ± 2.2e-06 s⁻¹
- KM (glucosamine-6-phosphate [2]): 234 ± 85 µM
- self-cleavage kobs at 640 uM GlcN6P (glucosamine-6-phosphate [4]): 5.07e-05 ± 1.2e-05 s⁻¹
- self-cleavage kobs at 2500 uM GlcN6P (glucosamine-6-phosphate [5]): 5.81e-05 ± 9e-06 s⁻¹
- self-cleavage kobs at 10000 uM GlcN6P (glucosamine-6-phosphate [6]): 6.26e-05 ± 5.5e-06 s⁻¹

Variant: G32C C67U
- kcat (glucosamine-6-phosphate [1]): 2.59e-05 ± 7.6e-07 s⁻¹
- KM (glucosamine-6-phosphate [2]): 885 ± 190 µM
- self-cleavage kobs at 10000 uM GlcN6P (glucosamine-6-phosphate [6]): 2.39e-05 ± 5.6e-06 s⁻¹

Variant: G41A U55A
- kcat (glucosamine-6-phosphate [1]): 6.65e-05 ± 1.1e-05 s⁻¹
- self-cleavage kobs at 160 uM GlcN6P (glucosamine-6-phosphate [3]): 4.67e-05 ± 1.4e-05 s⁻¹
- self-cleavage kobs at 640 uM GlcN6P (glucosamine-6-phosphate [4]): 6.66e-05 ± 1.1e-05 s⁻¹
- self-cleavage kobs at 2500 uM GlcN6P (glucosamine-6-phosphate [5]): 5.75e-05 ± 1.2e-05 s⁻¹

Variant: C16G C50U
- kcat (glucosamine-6-phosphate [1]): < 1e-05 s⁻¹
- self-cleavage kobs at 160 uM GlcN6P (glucosamine-6-phosphate [3]): < 1e-05 s⁻¹
